{"source": "patent US20170183403A1", "about": "(UNIVERSIT T Z RICH, published 2017)", "binders": {"B1": {"name": "NARA1 (antibody, mouse IgG2a, kappa, V domains shown)", "VH": "QVQLQQSGAELVRPGTSVKVSCKASGYAFTNYLIEWVKQRPGQGLEWIGVINPGSGGTNYNEKFKGKATLTADKSSSTAYMQLSSLTSDDSAVYFCARWRGDGYYAYFDVWGAGTTVTVSS", "VL": "not shown", "notes": "Mouse monoclonal from hybridoma; Isotype controls used were mouse IgG2a; also called anti-IL2 (NARA1) antibody; monoclonal antibody NARA1"}}, "key": {"[1]": {"target": "T1, Reference peptide no. 45", "T1 construct": "second library: peptide 13 with F(62) to Ala; also called peptide 45", "T1 peptide": "TRMLTAKFYMPKKAT", "experiment": "peptide microarray (RepliTope), 15-mers", "description": "(§1) Additional incubations are with unrelated antibodies from the same isotype (mouse control IgG2a/lambda and mouse control IgG2a/kappa), and secondary antibodies (anti-mouse IgG (Thermo 84545, label DL650) or anti-mouse IgG (JIR 115-175-072, Label Cy5)) to assess unspecific binding due to the detection antibody. The experiments are performed essentially as described in Maksimov P, et al. 2012, PLoS One 7:e34212. doi:10.1371/journal. pone. 0034212.\n(§2) The determination of peptide-antibody binding was performed by RepliTope-analysis where the peptide microarray (triplicate) was incubated with the primary antibody followed by a fluorescently labelled secondary antibody directed against the Fc-part of the primary one. All steps were performed on a TECAN microarray processing station enabling highly reliable and reproducible washing and incubation steps. After performing the incubation steps and subsequent to the final washing steps (to remove the unbound secondary antibodies) the microarrays were dried using a nitrogen stream and scanned in a high resolution microarray scanning system with appropriate wavelength settings. Control incubations were performed with an unrelated antibody having the same isotype to exclude false positive signals.\n(§3) The resulting images were analyzed und quantified using spot-recognition software GenePix (Molecular Devices). For each spot, the mean signal intensity was extracted (between 0 and 65535 arbitrary units). For further data evaluation, the MMC2 values were determined. The MMC2 equals the mean value of all three instances on the microarray. Except the coefficient of variation (CV)—standard-deviation divided by the mean value—is larger 0.5, in this case the mean of the two closest values (MC2) is assigned to MMC2."}, "[2]": {"target": "T2, Reference peptide no. 43", "T2 construct": "second library: peptide 11 with F(62) to Ala; also called peptide 43", "T2 peptide": "YKNPKLTRMLTAKFY", "experiment": "peptide microarray (RepliTope), 15-mers", "description": "as §1, §2, §3"}, "[3]": {"target": "T3, Reference peptide no. 13", "T3 construct": "hIL-2 15-mer, first library, on microarray; also called peptide 13", "T3 peptide": "TRMLTFKFYMPKKAT", "experiment": "peptide microarray (RepliTope), 15-mers", "description": "as §1, §2, §3"}, "[4]": {"target": "T4, Reference peptide no. 11", "T4 construct": "hIL-2 15-mer, first library, on microarray; also called peptide 11", "T4 peptide": "YKNPKLTRMLTFKFY", "experiment": "peptide microarray (RepliTope), 15-mers", "description": "as §1, §2, §3"}, "[5]": {"target": "T5, Reference peptide no. 38", "T5 construct": "hIL-2 15-mer, first library, parental Cys replaced by Ser, on microarray; also called peptide 38", "T5 peptide": "ATIVEFLNRWITFSQ", "experiment": "peptide microarray (RepliTope), 15-mers", "description": "as §1, §2, §3"}, "[6]": {"target": "T6, Reference peptide no. 37", "T6 construct": "hIL-2 15-mer, first library, on microarray; also called peptide 37", "T6 peptide": "DETATIVEFLNRWIT", "experiment": "peptide microarray (RepliTope), 15-mers", "description": "as §1, §2, §3"}, "[7]": {"target": "T7, Reference peptide no. 32", "T7 construct": "hIL-2 15-mer, first library, parental Cys replaced by Ser, on microarray; also called peptide 32", "T7 peptide": "LELKGSETTFMSEYA", "experiment": "peptide microarray (RepliTope), 15-mers", "description": "as §1, §2, §3"}, "[8]": {"target": "T8, Reference peptide no. 42", "T8 construct": "second library: peptide 10 with F(62) to Ala; also called peptide 42", "T8 peptide": "INNYKNPKLTRMLTA", "experiment": "peptide microarray (RepliTope), 15-mers", "description": "as §1, §2, §3"}, "[9]": {"target": "T9, Reference peptide no. 1", "T9 construct": "hIL-2 15-mer, first library, on microarray; also called peptide 1", "T9 peptide": "APTSSSTKKTQLQLE", "experiment": "peptide microarray (RepliTope), 15-mers", "description": "as §1, §2, §3"}, "[10]": {"target": "T10, Reference peptide no. 5", "T10 construct": "hIL-2 15-mer, first library, on microarray; also called peptide 5", "T10 peptide": "QLEHLLLDLQMILNG", "experiment": "peptide microarray (RepliTope), 15-mers", "description": "as §1, §2, §3"}, "[11]": {"target": "T11, Reference peptide no. 36", "T11 construct": "hIL-2 15-mer, first library, on microarray; also called peptide 36", "T11 peptide": "EYADETATIVEFLNR", "experiment": "peptide microarray (RepliTope), 15-mers", "description": "as §1, §2, §3"}, "[12]": {"target": "T12, Reference peptide no. 7", "T12 construct": "hIL-2 15-mer, first library, on microarray; also called peptide 7", "T12 peptide": "LDLQMILNGINNYKN", "experiment": "peptide microarray (RepliTope), 15-mers", "description": "as §1, §2, §3"}, "[13]": {"target": "T13, Reference peptide no. 25", "T13 construct": "hIL-2 15-mer, first library, on microarray; also called peptide 25", "T13 peptide": "AQSKNFHLRPRDLIS", "experiment": "peptide microarray (RepliTope), 15-mers", "description": "as §1, §2, §3"}, "[14]": {"target": "T14, Reference peptide no. 3", "T14 construct": "hIL-2 15-mer, first library, on microarray; also called peptide 3", "T14 peptide": "TKKTQLQLEHLLLDL", "experiment": "peptide microarray (RepliTope), 15-mers", "description": "as §1, §2, §3"}, "[15]": {"target": "T15, Reference peptide no. 52", "T15 construct": "second library: peptide 11 with F(62) and Y(65) to Ala; also called peptide 52", "T15 peptide": "YKNPKLTRMLTAKFA", "experiment": "peptide microarray (RepliTope), 15-mers", "description": "as §1, §2, §3"}, "[16]": {"target": "T16, Reference peptide no. 14", "T16 construct": "hIL-2 15-mer, first library, on microarray; also called peptide 14", "T16 peptide": "LTFKFYMPKKATELK", "experiment": "peptide microarray (RepliTope), 15-mers", "description": "as §1, §2, §3"}, "[17]": {"target": "T17, Reference peptide no. 18", "T17 construct": "hIL-2 15-mer, first library, parental Cys replaced by Ser, on microarray; also called peptide 18", "T17 peptide": "ELKHLQSLEEELKPL", "experiment": "peptide microarray (RepliTope), 15-mers", "description": "as §1, §2, §3"}, "[18]": {"target": "T18, Reference peptide no. 49", "T18 construct": "second library: peptide 13 with Y(65) to Ala; also called peptide 49", "T18 peptide": "TRMLTFKFAMPKKAT", "experiment": "peptide microarray (RepliTope), 15-mers", "description": "as §1, §2, §3"}, "[19]": {"target": "T19, Reference peptide no. 50", "T19 construct": "second library: peptide 14 with Y(65) to Ala; also called peptide 50", "T19 peptide": "LTFKFAMPKKATELK", "experiment": "peptide microarray (RepliTope), 15-mers", "description": "as §1, §2, §3"}, "[20]": {"target": "T20, Reference peptide no. 28", "T20 construct": "hIL-2 15-mer, first library, on microarray; also called peptide 28", "T20 peptide": "PRDLISNINVIVLEL", "experiment": "peptide microarray (RepliTope), 15-mers", "description": "as §1, §2, §3"}, "[21]": {"target": "T21, Reference peptide no. 15", "T21 construct": "hIL-2 15-mer, first library, on microarray; also called peptide 15", "T21 peptide": "KFYMPKKATELKHLQ", "experiment": "peptide microarray (RepliTope), 15-mers", "description": "as §1, §2, §3"}, "[22]": {"target": "T22, Reference peptide no. 46", "T22 construct": "second library: peptide 14 with F(62) to Ala; also called peptide 46", "T22 peptide": "LTAKFYMPKKATELK", "experiment": "peptide microarray (RepliTope), 15-mers", "description": "as §1, §2, §3"}, "[23]": {"target": "T23, Reference peptide no. 23", "T23 construct": "hIL-2 15-mer, first library, on microarray; also called peptide 23", "T23 peptide": "EEVLNLAQSKNFHLR", "experiment": "peptide microarray (RepliTope), 15-mers", "description": "as §1, §2, §3"}, "[24]": {"target": "T24, Reference peptide no. 22", "T24 construct": "hIL-2 15-mer, first library, on microarray; also called peptide 22", "T24 peptide": "KPLEEVLNLAQSKNF", "experiment": "peptide microarray (RepliTope)", "description": "as §1, §2, §3"}, "[25]": {"target": "T25, Reference peptide no. 24", "T25 construct": "hIL-2 15-mer, first library, on microarray; also called peptide 24", "T25 peptide": "LNLAQSKNFHLRPRD", "experiment": "peptide microarray (RepliTope)", "description": "as §1, §2, §3"}}}
{"binder": "B1", "values": [{"measurement": "binding result", "setting": "[1]", "result": "no binding"}, {"measurement": "binding result", "setting": "[2]", "result": "no binding"}, {"measurement": "binding result", "setting": "[3]", "result": "no binding"}, {"measurement": "binding result", "setting": "[4]", "result": "no binding"}, {"measurement": "binding result", "setting": "[5]", "result": "no binding"}, {"measurement": "binding result", "setting": "[6]", "result": "no binding"}, {"measurement": "binding result", "setting": "[7]", "result": "no binding"}, {"measurement": "binding result", "setting": "[8]", "result": "no binding"}, {"measurement": "binding result", "setting": "[9]", "result": "no binding"}, {"measurement": "binding result", "setting": "[10]", "result": "no binding"}, {"measurement": "binding result", "setting": "[11]", "result": "no binding"}, {"measurement": "binding result", "setting": "[12]", "result": "no binding"}, {"measurement": "binding result", "setting": "[13]", "result": "no binding"}, {"measurement": "binding result", "setting": "[14]", "result": "no binding"}, {"measurement": "binding result", "setting": "[15]", "result": "no binding"}, {"measurement": "binding result", "setting": "[16]", "result": "no binding"}, {"measurement": "binding result", "setting": "[17]", "result": "no binding"}, {"measurement": "binding result", "setting": "[18]", "result": "no binding"}, {"measurement": "binding result", "setting": "[19]", "result": "no binding"}, {"measurement": "binding result", "setting": "[20]", "result": "no binding"}, {"measurement": "binding result", "setting": "[21]", "result": "no binding"}, {"measurement": "binding result", "setting": "[22]", "result": "no binding"}, {"measurement": "binding result", "setting": "[23]", "result": "no binding"}, {"measurement": "signal intensity after subtraction of control signal", "setting": "[24]", "result": 0, "unit": "AU"}, {"measurement": "signal intensity after subtraction of control signal", "setting": "[25]", "result": 282, "unit": "AU"}]}
